Two molecules from PMC1931592 can be followed below.

In the experiment the target is Recombinant human caspase-9 (active) (human) (UniProt P55211). The experiment is described as follows: enzyme inhibition assay (fluorogenic substrate cleavage); one unit of active recombinant human caspase incubated with various concentrations of peptide inhibitor in 100 mM NaCl, 50 mM HEPES, 10 mM DTT, 1 mM EDTA, 10% glycerol, 0.1% CHAPS, pH 7.4, 37°C, 30 min; then 200 μM substrate (Ac-DEVD-MCA for caspases-3 and -7, Ac-IETD-MCA for caspase-8, Ac-LEHD-MCA for caspase-9); apparent Ki = IC50/(1+[S]/Km).
Recombinant human caspase-9 (active) (human), sequence (P55211 whole entry): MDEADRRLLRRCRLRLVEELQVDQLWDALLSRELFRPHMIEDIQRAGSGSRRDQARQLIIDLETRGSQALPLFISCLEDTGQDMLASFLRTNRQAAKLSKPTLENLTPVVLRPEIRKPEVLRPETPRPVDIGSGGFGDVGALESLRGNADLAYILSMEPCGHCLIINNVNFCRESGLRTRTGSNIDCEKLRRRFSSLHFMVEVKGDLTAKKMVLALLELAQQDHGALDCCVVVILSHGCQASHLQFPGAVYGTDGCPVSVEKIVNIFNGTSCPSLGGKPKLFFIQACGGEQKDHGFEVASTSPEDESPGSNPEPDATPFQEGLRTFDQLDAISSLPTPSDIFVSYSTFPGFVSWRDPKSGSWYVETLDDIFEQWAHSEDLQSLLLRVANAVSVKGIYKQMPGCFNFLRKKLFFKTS

B1: Ac-DQTD-CHO (peptide)
peptide: Ac-DQTD-aldehyde
SMILES: CC(=O)N[C@@H](CC(=O)O)C(=O)N[C@@H](CCC(N)=O)C(=O)N[C@H](C(=O)N[C@H](C=O)CC(=O)O)[C@@H](C)O
Turning to B1, the Ki was 14.5 nM.

B2: Ac-DMQD-CHO (peptide)
peptide: Ac-DMQD-aldehyde
SMILES: CSCC[C@H](NC(=O)[C@H](CC(=O)O)NC(C)=O)C(=O)N[C@@H](CCC(N)=O)C(=O)N[C@H](C=O)CC(=O)O
For the molecule B2, the Ki is over 200 nM.
